Key:
FUS-mEmerald [1] = target: FUS-mEmerald (UniProt P35637)
FUS-mEmerald [2] = target: FUS-mEmerald (UniProt P35637); assay: tie line gradient analysis (FUS dilute phase concentration by confocal detection in a microfluidic flow cell); mEmerald-tagged FUS; DNAJB6 varied 0-4 µM; FUS dilute phase concentration read after phase separation

Chain of UniProt P35637 (P35637 whole entry): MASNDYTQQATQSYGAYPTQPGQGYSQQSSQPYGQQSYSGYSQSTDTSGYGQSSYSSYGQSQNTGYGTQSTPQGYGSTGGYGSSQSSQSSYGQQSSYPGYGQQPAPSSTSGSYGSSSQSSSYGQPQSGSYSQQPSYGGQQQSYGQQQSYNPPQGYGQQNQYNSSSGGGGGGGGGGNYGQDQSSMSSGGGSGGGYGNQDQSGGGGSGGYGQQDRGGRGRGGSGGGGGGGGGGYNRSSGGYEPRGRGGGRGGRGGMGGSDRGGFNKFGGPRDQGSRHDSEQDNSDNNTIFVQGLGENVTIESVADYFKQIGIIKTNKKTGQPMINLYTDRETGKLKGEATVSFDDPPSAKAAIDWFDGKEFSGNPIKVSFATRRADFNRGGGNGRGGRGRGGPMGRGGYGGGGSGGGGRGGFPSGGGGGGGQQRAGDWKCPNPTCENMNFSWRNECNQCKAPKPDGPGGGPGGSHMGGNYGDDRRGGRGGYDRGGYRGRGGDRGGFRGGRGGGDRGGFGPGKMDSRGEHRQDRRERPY

Young's modulus of FUS + DNAJB6 condensates by AFM, 2 h (~31 kPa) to 48 h; FUS-only condensates rise from ~9 kPa to ~25,000 kPa (FUS-mEmerald [1]): 40 kPa | tie line gradient (µM DNAJB6 / µM FUS) (FUS-mEmerald [2]): 3
Substance: purified recombinant human DNAJB6 (from UniProt O75190 1-326) (natural protein)
